Experimental data as given in PMC8537947, “Improved Radiolytic Stability of a ^68Ga-labelled Collagelin Analogue for the Imaging of Fibrosis” (Pharmaceuticals, 2021).
Bridge positions count the residues as written; N and C are the ends. Square brackets hold non-standard residues; d marks the D form. Peptide text beside a SMILES is read from it. * marks the point of attachment. NOTA = O=C(O)CN1CCN(CC(=O)O)CCN(CC(=O)*)CC1; Nle = CCCC[C@H](N)C(=O)O; AEEA = NCCOCCOCC(=O)O

Experiment: in vivo
Set-up: species or system Sprague-Dawley rats
Settings: Sprague-Dawley, rat, iv, total radioactivity
Procedure: Sixteen male (n = 10; 363.3 ± 19.6 g) and female (n = 6; 199.2 ± 5.5 g) Sprague–Dawley rats were used for ex vivo organ distribution of the [^68Ga]Ga-NO2A-[Nle13]-Col for the subsequent extrapolation and calculation of human dosimetry. The male and female animals were administered into the tail vein with, respectively, 2.3 ± 0.8 MBq and 1.4 ± 0.5 MBq, sacrificed at 5, 10, 30, 40, 60, and 120 min post administration, and the organs were harvested, weighted, and measured for their radioactivity content. Samples from the blood, heart, lung, liver, spleen, adrenal glands, kidneys, intestines with or without contents, muscle, testis, bone, brain, pancreas, urine bladder, and bone marrow were collected. To monitor radioactivity elimination and recovery, the radioactivity of the remaining carcass was also measured. The radioactivity measurements were corrected for decay and converted into standardized uptake values (SUVs, Table S2) according to Equation (2), wherein the radioactivity is expressed in MBq and the weight in grams:(2) SUV=Radioactivityorgan∗weightrat/Radioactivityinjected∗weightorgan

[1] = female, 1.4 MBq, SUV bladder (UB)
[2] = female, 1.4 MBq, SUV blood (BL)
[3] = female, 1.4 MBq, SUV brain (BR)
[4] = female, 1.4 MBq, SUV heart (HE)
[5] = female, 1.4 MBq, SUV liver (LI)
[6] = female, 1.4 MBq, SUV lungs (LU)
[7] = female, 1.4 MBq, SUV muscle (MU)
[8] = female, 1.4 MBq, SUV red bone marrow (BM)
[9] = female, 1.4 MBq, SUV spleen (SP)
[10] = female, SUV large intestine without content (INL-)
[11] = female, SUV small intestine with its content (INS+)

Which results are given for `CCCC[C@@H]1NC(=O)[C@H](C(C)C)NC(=O)[C@H](CCCNC(=N)N)NC(=O)CNC(=O)[C@@H]2CCCN2C(=O)[C@@H](NC(=O)COCCOCCNC(=O)CN2CCN(CC(=O)O)CCN(CC(=O)O)CC2)CSSC[C@@H](C(=O)O)NC(=O)[C@@H]2CCCN2C(=O)CNC(=O)[C@H](CCC(=O)O)NC(=O)[C@H](CC(=O)O)NC(=O)[C@H](CC(=O)O)NC(=O)CNC(=O)[C@H](CC(C)C)NC(=O)[C@H](Cc2c[nH]cn2)NC(=O)[C@H](CC(C)C)NC(=O)CNC(=O)[C@H](Cc2c[nH]cn2)NC1=O` [[^68Ga]Ga-NO2A-[Nle^13]-Col, [^68Ga]Ga-NOTA-PEG2-c[CPGRVNleHGLHLGDDEGPC], metal not drawn] ({NOTA-AEEA}-CPGRV[Nle]HGLHLGDDEGPC-OH; disulfide 1-18)?
SUV at 2 h (SUV of adrenal glands, bone marrow and urinary bladder): < 0.25 SUV; SUV at 1 h (SUV of all vital organs): < 0.2 SUV; SUV at 2 h (SUV of the remainder of the organs): < 0.1 SUV; SUV at 2 h (both sexes, SUV of most of the organs): < 0.25 SUV; SUV at 5 min [1]: 4.88 SUV; SUV at 10 min [1]: 6.96 SUV; SUV at 0.5 h [1]: 5.83 SUV; SUV at 40 min [1]: 0.843 SUV; SUV at 1 h [1]: 1.08 SUV; SUV at 2 h [1]: 0.321 SUV; SUV at 10 min [2]: 1.42 SUV; SUV at 0.5 h [2]: 0.497 SUV; SUV at 40 min [2]: 0.432 SUV; SUV at 1 h [2]: 0.217 SUV; SUV at 2 h [2]: 0.0412 SUV; SUV at 5 min (female, 1.4 MBq, SUV bone (BO)): 0.391 SUV; SUV at 10 min (female, 1.4 MBq, SUV bone (BO)): 0.403 SUV; SUV at 0.5 h (female, 1.4 MBq, SUV bone (BO)): 0.179 SUV; SUV at 40 min (female, 1.4 MBq, SUV bone (BO)): 0.106 SUV; SUV at 1 h (female, 1.4 MBq, SUV bone (BO)): 0.064 SUV; SUV at 2 h (female, 1.4 MBq, SUV bone (BO)): 0.031 SUV; SUV at 5 min [3]: 0.073 SUV; SUV at 10 min [3]: 0.0964 SUV; SUV at 0.5 h [3]: 0.0189 SUV; SUV at 40 min [3]: 0.0174 SUV; SUV at 1 h [3]: 0.0149 SUV; SUV at 2 h [3]: 0.0062 SUV; SUV at 5 min [4]: 0.741 SUV; SUV at 10 min [4]: 0.68 SUV; SUV at 0.5 h [4]: 0.207 SUV; SUV at 40 min [4]: 0.18 SUV; SUV at 1 h [4]: 0.104 SUV; SUV at 2 h [4]: 0.026 SUV; SUV at 5 min [5]: 0.438 SUV; SUV at 10 min [5]: 0.452 SUV; SUV at 0.5 h [5]: 0.171 SUV; SUV at 40 min [5]: 0.147 SUV; SUV at 1 h [5]: 0.114 SUV; SUV at 2 h [5]: 0.0889 SUV; SUV at 5 min [6]: 1.12 SUV; SUV at 10 min [6]: 0.986 SUV; SUV at 0.5 h [6]: 0.385 SUV; SUV at 40 min [6]: 0.427 SUV; SUV at 1 h [6]: 0.276 SUV; SUV at 2 h [6]: 0.0631 SUV; SUV at 5 min [7]: 0.514 SUV; SUV at 10 min [7]: 0.295 SUV; SUV at 0.5 h [7]: 0.214 SUV; SUV at 40 min [7]: 0.0802 SUV; SUV at 1 h [7]: 0.0488 SUV; SUV at 2 h [7]: 0.0213 SUV; SUV at 2 h (female, 1.4 MBq, SUV ovarian (OV)): 0.124 SUV; SUV at 5 min [8]: 0.484 SUV; SUV at 10 min [8]: 0.443 SUV; SUV at 0.5 h [8]: 0.162 SUV; SUV at 40 min [8]: 0.769 SUV; SUV at 1 h [8]: 0.113 SUV; SUV at 2 h [8]: 0.343 SUV; SUV at 5 min [9]: 0.423 SUV; SUV at 10 min [9]: 0.354 SUV; SUV at 0.5 h [9]: 0.174 SUV; SUV at 40 min [9]: 0.135 SUV; SUV at 1 h [9]: 0.0938 SUV; SUV at 5 min (female, SUV adrenals (AD)): 0.724 SUV; SUV at 10 min (female, SUV adrenals (AD)): 1.29 SUV; SUV at 0.5 h (female, SUV adrenals (AD)): 0.0127 SUV; SUV at 40 min (female, SUV adrenals (AD)): 0.25 SUV; SUV at 1 h (female, SUV adrenals (AD)): 0.198 SUV; SUV at 2 h (female, SUV adrenals (AD)): 0.128 SUV; SUV at 5 min (female, SUV blood (BL)): 2.06 SUV; SUV at 5 min (female, SUV kidneys (KI)): 12.1 SUV; SUV at 10 min (female, SUV kidneys (KI)): 11.3 SUV; SUV at 0.5 h (female, SUV kidneys (KI)): 6.32 SUV; SUV at 40 min (female, SUV kidneys (KI)): 12.9 SUV; SUV at 1 h (female, SUV kidneys (KI)): 12.8 SUV; SUV at 2 h (female, SUV kidneys (KI)): 9.08 SUV; SUV at 5 min [10]: 0.569 SUV; SUV at 10 min [10]: 0.91 SUV; SUV at 0.5 h [10]: 0.193 SUV; SUV at 40 min [10]: 0.211 SUV; SUV at 1 h [10]: 0.103 SUV; SUV at 2 h [10]: 0.046 SUV; SUV at 5 min (female, SUV ovarian (OV)): 0.927 SUV; SUV at 10 min (female, SUV ovarian (OV)): 1.87 SUV; SUV at 0.5 h (female, SUV ovarian (OV)): 0.341 SUV; SUV at 40 min (female, SUV ovarian (OV)): 0.335 SUV; SUV at 1 h (female, SUV ovarian (OV)): 0.159 SUV; SUV at 5 min (female, SUV pancreas (PA)): 0.439 SUV; SUV at 10 min (female, SUV pancreas (PA)): 0.361 SUV; SUV at 0.5 h (female, SUV pancreas (PA)): 0.164 SUV; SUV at 40 min (female, SUV pancreas (PA)): 0.0609 SUV; SUV at 1 h (female, SUV pancreas (PA)): 0.0659 SUV; SUV at 2 h (female, SUV pancreas (PA)): 0.029 SUV; SUV at 5 min [11]: 0.436 SUV; SUV at 10 min [11]: 0.558 SUV; SUV at 0.5 h [11]: 0.277 SUV; SUV at 40 min [11]: 0.165 SUV; SUV at 1 h [11]: 0.129 SUV; SUV at 2 h [11]: 0.0343 SUV
